Source: publication PMC5843810 (EJNMMI Radiopharmacy and Chemistry, 2016)
Bridges are numbered along the chain shown (N, C = ends). [ ]: non-standard residue; d: D form. Ahx = NCCCCCC(=O)O; βAla = NCCC(=O)O

Assays:
MC1R [1] = biological target: T1, MC1R (mouse (endogenous in B16/F10), UniProt Q01727 1-315); assay: radioligand binding; receptor affinity (Kd) of the 99mTc-labelled peptide; B16/F10 melanoma cells are the only cells named; conditions: one partner purified
T1 construct: also called MCR1R
T1 sequence (Q01727 whole entry): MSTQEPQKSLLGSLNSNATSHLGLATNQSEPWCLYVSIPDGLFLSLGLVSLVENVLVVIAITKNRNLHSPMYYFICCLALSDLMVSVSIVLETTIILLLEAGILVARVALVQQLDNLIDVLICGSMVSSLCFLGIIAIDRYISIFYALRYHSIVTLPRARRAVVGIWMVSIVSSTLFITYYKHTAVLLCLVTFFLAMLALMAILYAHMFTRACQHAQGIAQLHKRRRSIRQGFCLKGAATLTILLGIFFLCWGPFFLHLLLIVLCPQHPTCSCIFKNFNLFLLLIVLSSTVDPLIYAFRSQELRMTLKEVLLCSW

MC1R [2] = biological target: T1, MC1R; assay: radioligand binding; MC1R binding affinity (Ki) of the unlabelled peptides determined in B16/F10 melanoma cells; the competing ligand is not named; conditions: one partner purified

B1: [99mTc(N)(NAP-NS1)(PNP3)]+ (peptide)
chain: CXXXDHFRWG
modifications: Ahx at 2, βAla at 3, Nle at 4 (each written X); D-Phe at 7; C-terminal amide; [99mTc(N)(PNP3)] label (PNP3 = N,N-bis(dimethoxypropylphosphinoethyl)methoxyethylamine)
For B1, the Kd (MC1R [1]) was 7.1 ± 0.5 nM.

B2: NAP-NS2, lactam bridge-cyclized H-Cys-Ahx-βAla3-c[Lys4-Glu-His-D-Phe-Arg-Trp-Glu10]-Arg11-Pro-Val-NH2 (peptide)
chain: H-C[Ahx][βAla]KEH[dF]RWERPV-NH2
modifications: lactam 4-10
SMILES: CC(C)[C@H](NC(=O)[C@@H]1CCCN1C(=O)[C@H](CCCNC(=N)N)NC(=O)[C@@H]1CCC(=O)NCCCC[C@H](NC(=O)CCNC(=O)CCCCCNC(=O)[C@@H](N)CS)C(=O)N[C@@H](CCC(=O)O)C(=O)N[C@@H](Cc2c[nH]cn2)C(=O)N[C@H](Cc2ccccc2)C(=O)N[C@@H](CCCNC(=N)N)C(=O)N[C@@H](Cc2c[nH]c3ccccc23)C(=O)N1)C(N)=O
B2 showed a Ki (MC1R [2]) of 7.1 ± 2.4 nM.

B3: NAP-NS1, linear H-Cys-Ahx-βAla-Nle-Asp-His-D-Phe-Arg-Trp-Gly-NH2 (peptide)
chain: CXXXDHFRWG
modifications: Ahx at 2, βAla at 3, Nle at 4 (each written X); D-Phe at 7; C-terminal amide
For B3, the Ki (MC1R [2]) was 0.9 ± 0.3 nM.
